Consider 1 molecule from paper PMC11102226, “Three-dimensional DNA nanomachine biosensor coupled with CRISPR Cas12a cascade amplification for ultrasensitive detection of carcinoembryonic antigen”.

The series deals with carcinoembryonic antigen (CEA) (UniProt P06731 35-685). Description: agarose gel (displacement of Walker strand from aptamer-Walker duplex); 10 ng/mL CEA; DNA 10 uM; aptamer pre-hybridised to Walker; aptamer-Walker duplex formed in 1x PBS (0.01 M, pH 7.4) at 37 C for 1 h; sensor with 10 mM Mn2+; gel binding buffer not given in the available material. To be noted: protein displaces Walker.
carcinoembryonic antigen (CEA), sequence (P06731 35-685): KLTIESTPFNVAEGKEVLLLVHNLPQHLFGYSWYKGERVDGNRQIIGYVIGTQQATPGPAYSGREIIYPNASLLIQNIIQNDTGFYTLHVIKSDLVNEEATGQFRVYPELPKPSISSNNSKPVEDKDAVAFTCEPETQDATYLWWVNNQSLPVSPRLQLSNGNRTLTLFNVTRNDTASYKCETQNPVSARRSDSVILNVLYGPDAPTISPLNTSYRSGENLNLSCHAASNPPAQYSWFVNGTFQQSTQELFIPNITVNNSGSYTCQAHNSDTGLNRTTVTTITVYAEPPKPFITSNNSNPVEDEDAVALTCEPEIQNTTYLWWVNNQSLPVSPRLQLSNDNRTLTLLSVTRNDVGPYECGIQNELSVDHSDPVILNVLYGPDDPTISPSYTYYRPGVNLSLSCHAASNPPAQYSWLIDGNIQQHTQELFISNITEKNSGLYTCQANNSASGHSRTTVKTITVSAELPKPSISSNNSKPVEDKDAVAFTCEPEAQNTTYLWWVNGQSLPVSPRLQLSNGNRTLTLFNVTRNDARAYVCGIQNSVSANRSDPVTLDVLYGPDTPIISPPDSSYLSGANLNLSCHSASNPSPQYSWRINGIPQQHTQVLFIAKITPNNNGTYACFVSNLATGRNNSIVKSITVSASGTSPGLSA

In the case of ATACCAGCTTATTCAATT (ssDNA) [CEA aptamer], the binding result is listed as “binds”.
